Measurements reported in PMC6100724, “Proteome‐wide analysis of phospho‐regulated PDZ domain interactions” (Molecular Systems Biology, 2018).
Each block holds one substance with its values, some of them ahead of it.

Assays:
[1] = molecular target: FITC-…, phosphomimetic (p-6) TANC1 peptide (human); experiment: MST; FITC-labeled peptide fixed at 25-50 nM, DLG1 PDZ2 titrated (1:1 dilution series); 50 mM Tris-HCl pH 7.4, 0.1% Tween-20; KD from thermophoresis and T-Jump signal; n = 3
[2] = molecular target: FITC-HTNETEL, phosphomimetic (p-1) MCC peptide (human); experiment: as above
Scribble PDZ1, 719-829 = Scribble PDZ1, 719-829 (UniProt Q14160); experiment: ITC; conditions: reference: unphosphorylated …; sites S730
[3] = molecular target: Scribble PDZ1 (human, aa 719-829) (human) (UniProt Q14160); experiment: ITC; iTC200, 25°C, 20 mM HEPES pH 7.4; protein 50-100 µM in the cell, 0.64-3 mM peptide in the syringe; single-site fit, stoichiometry fixed to 0.8-1.1; triplicate
Sequence of Scribble PDZ1 (human, aa 719-829) (human) (Q14160 719-829): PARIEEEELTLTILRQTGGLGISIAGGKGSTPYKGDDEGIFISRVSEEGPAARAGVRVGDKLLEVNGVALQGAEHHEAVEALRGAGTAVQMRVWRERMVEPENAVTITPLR

Sequence of DLG1 PDZ2 (human DLG1 PDZ2 aa 311-407) (Q12959 311-407): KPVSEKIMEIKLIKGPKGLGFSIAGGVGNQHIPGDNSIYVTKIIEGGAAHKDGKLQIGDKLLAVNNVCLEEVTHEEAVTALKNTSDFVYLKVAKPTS
Sequence of Scribble PDZ1, 719-829 (Q14160 whole entry, looked up, the tested form may be a part): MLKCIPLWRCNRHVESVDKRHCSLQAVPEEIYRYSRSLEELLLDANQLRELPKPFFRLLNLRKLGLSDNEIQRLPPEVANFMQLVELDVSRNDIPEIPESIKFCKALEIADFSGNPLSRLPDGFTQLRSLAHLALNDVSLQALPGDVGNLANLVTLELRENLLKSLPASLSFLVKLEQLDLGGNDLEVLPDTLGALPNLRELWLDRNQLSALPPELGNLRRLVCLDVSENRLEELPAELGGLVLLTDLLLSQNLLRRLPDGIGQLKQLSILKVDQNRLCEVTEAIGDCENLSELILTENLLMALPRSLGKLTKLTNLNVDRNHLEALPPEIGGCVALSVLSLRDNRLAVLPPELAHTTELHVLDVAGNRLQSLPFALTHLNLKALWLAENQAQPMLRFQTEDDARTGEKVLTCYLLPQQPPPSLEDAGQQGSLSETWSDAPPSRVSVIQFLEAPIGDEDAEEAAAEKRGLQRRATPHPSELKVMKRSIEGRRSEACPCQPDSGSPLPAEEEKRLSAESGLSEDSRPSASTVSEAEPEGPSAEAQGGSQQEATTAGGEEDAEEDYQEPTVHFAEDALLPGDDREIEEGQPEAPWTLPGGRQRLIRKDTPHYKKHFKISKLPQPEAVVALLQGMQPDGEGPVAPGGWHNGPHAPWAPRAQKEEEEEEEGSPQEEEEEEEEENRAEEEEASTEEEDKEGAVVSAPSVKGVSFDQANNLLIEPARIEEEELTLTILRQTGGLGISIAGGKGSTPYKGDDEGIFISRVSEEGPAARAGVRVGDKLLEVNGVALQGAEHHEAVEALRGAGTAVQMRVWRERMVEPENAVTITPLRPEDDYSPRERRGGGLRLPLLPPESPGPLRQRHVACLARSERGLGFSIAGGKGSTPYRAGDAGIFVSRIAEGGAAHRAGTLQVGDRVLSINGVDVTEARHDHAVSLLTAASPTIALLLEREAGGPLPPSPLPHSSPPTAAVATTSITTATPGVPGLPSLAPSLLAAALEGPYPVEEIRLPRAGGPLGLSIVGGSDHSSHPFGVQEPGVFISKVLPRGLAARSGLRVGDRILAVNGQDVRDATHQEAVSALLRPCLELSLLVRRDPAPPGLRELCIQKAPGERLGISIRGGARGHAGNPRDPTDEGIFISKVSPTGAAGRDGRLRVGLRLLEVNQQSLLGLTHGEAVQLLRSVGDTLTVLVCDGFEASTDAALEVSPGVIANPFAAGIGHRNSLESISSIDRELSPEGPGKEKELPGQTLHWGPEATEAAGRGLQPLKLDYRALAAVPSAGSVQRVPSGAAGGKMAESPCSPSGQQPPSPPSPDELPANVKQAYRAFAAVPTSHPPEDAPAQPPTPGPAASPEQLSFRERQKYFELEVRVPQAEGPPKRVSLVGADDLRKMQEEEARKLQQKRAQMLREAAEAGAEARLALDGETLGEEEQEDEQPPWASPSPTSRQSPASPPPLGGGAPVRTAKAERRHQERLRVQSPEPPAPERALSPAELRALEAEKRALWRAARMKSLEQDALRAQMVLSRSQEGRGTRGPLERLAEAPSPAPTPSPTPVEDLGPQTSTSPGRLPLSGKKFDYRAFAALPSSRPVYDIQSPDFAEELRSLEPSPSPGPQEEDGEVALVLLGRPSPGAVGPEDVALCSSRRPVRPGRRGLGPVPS

Kd [1]: 5.1 µM
Kd [2]: 21 µM
Substance: DLG1 PDZ2 (human DLG1 PDZ2 aa 311-407) (from UniProt Q12959 311-407) (domain or fragment)

fold change (Scribble PDZ1, 719-829): stronger
Substance: RPS6KA2 C-terminal 9 residues (from UniProt Q15349) MKRLTpSTRL

Kd [3]: 1.2 µM
Substance: MAPK12 peptide … (unphosphorylated)
